Laboratory results reported in patent US20240076384A1 (DRAGONFLY THERAPEUTICS, published 2024).
Positions count from the first letter of the chain named.

T1: human NKG2D expressed on EL4 cells (human, UniProt P26718 1-216)
T1 construct: whole, on cells; also called NKG2D on EL4 cells; extracellular NKG2D expressed on EL4 cells
T1 sequence (looked up): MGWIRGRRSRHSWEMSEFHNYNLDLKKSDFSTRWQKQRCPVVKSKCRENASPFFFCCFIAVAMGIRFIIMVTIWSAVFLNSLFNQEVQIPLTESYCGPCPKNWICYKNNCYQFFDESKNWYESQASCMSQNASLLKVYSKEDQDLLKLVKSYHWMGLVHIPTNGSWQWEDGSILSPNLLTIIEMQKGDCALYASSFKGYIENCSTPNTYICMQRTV

T2: ULBP6 (NKG2D natural ligand) (Homo sapiens (Human), UniProt Q5VY80 26-218)
T2 sequence: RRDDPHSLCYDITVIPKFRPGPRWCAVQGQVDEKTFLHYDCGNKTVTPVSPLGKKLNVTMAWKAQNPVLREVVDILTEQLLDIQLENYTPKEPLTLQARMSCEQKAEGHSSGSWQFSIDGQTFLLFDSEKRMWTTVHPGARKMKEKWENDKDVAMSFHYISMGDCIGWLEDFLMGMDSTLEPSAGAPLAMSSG

B1: NKG2D monoclonal antibody comprising F47 (antibody, V domains shown)
VH: QVQLQQWGAGLLKPSETLSLTCAVYGGSFSGYYWSWIRQPPGKGLEWIGEIDHSGSTNYNPSLKSRVTISVDTSKNQFSLKLSSVTAADTAVYYCARARGPWSFDPWGQGTLVTVSS
VL: DIQMTQSPSTLSASVGDRVTITCRASQSISSWLAWYQQKPGKAPKLLIYKASSLESGVPSRFSGSGSGTEFTLTISSLQPDDFATYYCQQYDTFITFGGGTKVEIK
notes: Monoclonal antibody
B2: CD33-TriNKET-A44 (ADI-27744 and a CD33 binding domain) (bispecific antibody, V domains shown)
VH 1: not shown
VL 1: DIQMTQSPSSVSASVGDRVTITCRASQGIDSWLAWYQQKPGKAPKLLIYAASSLQSGVPSRFSGSGSGTDFTLTISSLQPEDFATYYCQQGVSYPRTFGGGTKVEIK
VH 2: QVQLVQSGAEVKKPGASVKVSCKASGYTFTDYVVHWVRQAPGQGLEWMGYINPYNDGTKYNEKFKGRVTMTRDTSISTAYMELSRLRSDDTAVYYCARDYRYEVYGMDYWGQGTLVTVSS
VL 2: DIVLTQSPASLAVSPGQRATITCTASSSVNYIHWYQQKPGQPPKLLIYDTSKVASGVPARFSGSGSGTDFTLTINPVEANDTANYYCQQWRSYPLTFGQGTKLEIK
B3: CD33-TriNKET-A49 (ADI-27749 and a CD33 binding domain) (bispecific antibody, V domains shown)
VH 1: EVQLVESGGGLVKPGGSLRLSCAASGFTFSSYSMNWVRQAPGKGLEWVSSISSSSSYIYYADSVKGRFTISRDNAKNSLYLQMNSLRAEDTAVYYCARGAPMGAAAGWFDPWGQGTLVTVSS
VL 1: B2 VL 1 with D30S, Y94F
VH 2: B2 VH 2
VL 2: B2 VL 2
B4: soluble mouse Fc-human NKG2D dimer (Fc fusion, UniProt P26718 78-216, looked up)
chain: FLNSLFNQEVQIPLTESYCGPCPKNWICYKNNCYQFFDESKNWYESQASCMSQNASLLKVYSKEDQDLLKLVKSYHWMGLVHIPTNGSWQWEDGSILSPNLLTIIEMQKGDCALYASSFKGYIENCSTPNTYICMQRTV
notes: also called mFc-hNKG2D; fusion protein of human NKG2D and murine Fc; not shown: mouse (murine) Fc
B5: CD33-TriNKET-F63 (ADI-29463 and a CD33 binding domain) (bispecific antibody, V domains shown)
VH 1: not shown
VL 1: EIVLTQSPGTLSLSPGERATLSCRASQSVSSNLAWYQQKPGQAPRLLIYGASTRATGIPARFSGSGSGTEFTLTISSLQSEDFAVYYCQQDDYWPPTFGGGTKVEIK
VH 2: B2 VH 2
VL 2: B2 VL 2
B6: NKG2D monoclonal antibody comprising ADI-27744 (antibody, V domains shown)
VH: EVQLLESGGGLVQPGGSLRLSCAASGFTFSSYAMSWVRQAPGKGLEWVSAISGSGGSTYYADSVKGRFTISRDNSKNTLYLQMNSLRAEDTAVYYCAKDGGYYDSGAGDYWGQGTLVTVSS
VL: B2 VL 1
notes: also called A44
B7: Human monoclonal antibody containing NKG2D-binding domain ADI-29379 (antibody, V domains shown)
VH: QVQLVQSGAEVKKPGASVKVSCKASGYTFTSYYMHWVRQAPGQGLEWMGIINPSGGSTSYAQKFQGRVTMTRDTSTSTVYMELSSLRSEDTAVYYCARGAPNYGDTTHDYYYMDVWGKGTTVTVSS
VL: B5 VL 1 with L4M, G9A, L13V, D91Y, Y93D, P96F
notes: Tested as a human monoclonal antibody; also called E79; ADI-29379 (E79)
B8: NKG2D monoclonal antibody comprising ADI-27749 (antibody, V domains shown)
VH: B3 VH 1
VL: B2 VL 1 with D30S, Y94F
notes: also called A49
B9: Human monoclonal antibody containing NKG2D-binding domain ADI-29378 (antibody, V domains shown)
VH: QVQLVQSGAEVKKPGASVKVSCKASGYTFTSYYMHWVRQAPGQGLEWMGIINPSGGSTSYAQKFQGRVTMTRDTSTSTVYMELSSLRSEDTAVYYCAREGAGFAYGMDYYYMDVWGKGTTVTVSS
VL: B5 VL 1 with G9A, N32Y, G50D, T53N, E70D, Q79E, S80P, D91S, Y93N, P96F
notes: Tested as a human monoclonal antibody; also called E78; ADI-29378 (E78)

Assays:
[1] = biological target: B4; experiment: SPR (Biacore 8K, 25 C), captured mouse Fc-human NKG2D, consecutive injections; F47 injected after A44 was bound
Description: (§1) Briefly, mouse Fc-human NKG2D was captured using an anti-mouse Fc antibody immobilized on a CM5 chip at a density of approximately 100 RU. […] Biacore 8K evaluation software was used for all data analysis.

[2] = biological target: T3, CD33 expressed on human AML cell line MV4-11 (human, UniProt P20138 18-364); experiment: flow cytometry on Mv4-11 cells, anti-human IgG secondary, fold over background against secondary antibody control
T3 construct: whole, on cells; also called CD33 expressed on Mv4-11 cells
Method: Human AML cell line MV4-11, expressing CD33 was used to assay the binding of TriNKETs to the tumor-associated antigen. TriNKETs and the parental CD33 monoclonal antibody were incubated with the cells, and the binding was detected using fluorophore-conjugated anti-human IgG secondary antibodies. Cells were analyzed by flow cytometry, and fold-over-background (FOB) was calculated using the mean fluorescence intensity (MFI) from TriNKETs and the parental monoclonal CD33 antibody normalized to secondary antibody controls.

[3] = biological target: T1, human NKG2D expressed on EL4 cells; experiment: flow cytometry on EL4 cells expressing NKG2D, anti-human IgG secondary, fold over background against parental EL4 cells
Method: EL4 mouse lymphoma cell lines were engineered to express human NKG2D. […] The binding of the multispecific binding proteins to NKG2D was detected using fluorophore-conjugated anti-human IgG secondary antibodies. Cells were analyzed by flow cytometry, and fold-over-background (FOB) was calculated using the mean fluorescence intensity (MFI) of NKG2D expressing cells compared to parental EL4 cells.

[4] = biological target: T2, ULBP6 (NKG2D natural ligand); experiment: SPR (Biacore 8K, 25 C), captured mouse Fc-human NKG2D, consecutive injections; ULBP6 injected after A44 (ADI-27744 antibody) was bound
Description: as §1

[5] = biological target: B4; experiment: SPR (Biacore 8K); lower end of the group's range, tied to ADI-27744 by Table 9
Method: (§2) Kinetics and affinity of various NKG2D-binding domains were assessed by surface plasmon resonance using Biacore 8K instrument (GE Healthcare). Anti-human Fc antibody was immobilized on a CM5 chip using standard amine coupling chemistry. Human monoclonal antibodies containing various NKG2D-binding domains were captured on the anti-human Fc chip at a density of approximately 100 RU. Solutions containing 0.411-100 nM soluble mouse Fc-human NKG2D dimers were injected over the captured NKG2D antibodies and control surfaces at 30 μl/min at 37° C. Surfaces were regenerated between cycles by quick injection of 10 mM glycine, pH 1.8. To obtain kinetic rate constants, double-referenced data were fit to a 1:1 interaction model using Biacore 8K Evaluation software (GE Healthcare). The equilibrium binding constant KD was determined by the ratio of dissociation constant kd and association constant kₐ (kd/kₐ).

[6] = biological target: B4; experiment: SPR (Biacore 8K), antibody captured on anti-human Fc, soluble mouse Fc-human NKG2D dimer as analyte, 37 C, kd/ka
Method: as §2

[7] = biological target: B4; experiment: SPR (Biacore 8K), antibody captured on anti-human Fc, soluble mouse Fc-human NKG2D dimer as analyte, 37 C, 1:1 fit
Method: as §2

T3 sequence (P20138 18-364): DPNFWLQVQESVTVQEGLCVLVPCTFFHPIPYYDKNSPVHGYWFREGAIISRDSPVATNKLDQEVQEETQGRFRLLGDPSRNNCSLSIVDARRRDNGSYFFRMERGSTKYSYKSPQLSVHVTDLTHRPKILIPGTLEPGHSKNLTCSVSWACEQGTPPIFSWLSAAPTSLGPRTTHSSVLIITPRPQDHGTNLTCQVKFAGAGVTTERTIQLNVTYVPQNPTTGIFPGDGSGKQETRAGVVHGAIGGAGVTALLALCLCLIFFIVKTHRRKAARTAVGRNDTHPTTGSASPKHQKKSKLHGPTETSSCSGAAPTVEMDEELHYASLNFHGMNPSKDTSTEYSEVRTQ

Binder	binding result [2]	Kd [6]	koff [7]	kon [7]	also measured
B1	–	–	–	–	binding result [1]: binds
B2	binds	–	–	–	binding result [3]: binds
B3	binds	–	–	–	binding result [3]: binds
B4	–	–	–	–	binding result [4]: binds
B5	binds	–	–	–	–
B6	–	10.1 nM	0.00299 s⁻¹	295000 M⁻¹ s⁻¹	Kd [5]: 10 to 62 nM
B7	–	50.7 nM	0.0225 s⁻¹	443000 M⁻¹ s⁻¹	–
B8	–	12.4 nM	0.00489 s⁻¹	395000 M⁻¹ s⁻¹	–
B9	–	58.5 nM	0.0487 s⁻¹	832000 M⁻¹ s⁻¹	–
